The values below come from patent US20250171534A1 (D2M BIOTHERAPEUTICS, published 2025).

The target of assay [1] is T1, LILRB2-ECD-HIS (SinoBiological Cat #: 14132-H02H) (human, UniProt Q8N423 22-460).
T1 construct: Bought protein; also called monomeric antigen LILRB2-ECD-HIS; not shown: His tag
Nature of the assay: BLI epitope binning (Gator), monomeric antigen.

Assay [2] addresses T2, human LILRB2 expressed on cells (human, UniProt Q8N423 22-597).
T2 construct: In 293T cells it was expressed from pCMV3-LILRB2-GFP; also called CHO-LILRB2; Jurkat-LILRB2
In words: flow cytometry, CHO-LILRB2 cells.

The target of assay [3] is T3, human LILRB1 expressed on cells (human, UniProt Q8NHL6 24-650).
T3 construct: In 293T cells it was expressed from pCMV3-LILRB1-GFP; also called CHO-LILRB1; Jurkat-LILRB1
Nature of the assay: flow cytometry, CHO-LILRB1 cells. (In general: In flow cytometry, cells or beads pass a laser one at a time.)

Assay [4] addresses T3, human LILRB1 expressed on cells. In words: flow cytometry, CHO-LILRB1 cells. The source holds these as a separate data set.
Assay [5] concerns the target T1, LILRB2-ECD-HIS (SinoBiological Cat #: …). In words: SPR (Carterra LSA), antibody captured, antigen injected.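 Further: kd obtained from kinetic analysis of antibody binding to the antigen, with association and dissociation phases fitted in the instrument software.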
Assay [6] has as its target T4, LILRB1-ECD-HIS (SinoBiological Cat #: 16014-H02H) (human, UniProt Q8NHL6 24-461).
T4 construct: Bought protein; also called monomeric antigen LILRB1-ECD-HIS; not shown: His tag
The description is as above.

Assay [7] concerns the target T2, human LILRB2 expressed on cells. Nature of the assay: flow cytometry, Jurkat-LILRB2 cells; blocked ligand: APC HLA-G monomer tetramer.
In assay [8] the target is T3, human LILRB1 expressed on cells. In words: flow cytometry, Jurkat-LILRB1 cells; blocked ligand: APC HLA-G trimer tetramer.
For assay [9], the target named is T2, human LILRB2 expressed on cells. Nature of the assay: flow cytometry, Jurkat-LILRB2 cells.
The target of assay [10] is T3, human LILRB1 expressed on cells. Nature of the assay: flow cytometry, Jurkat-LILRB1 cells.
Assay [11] has the same target. In words: flow cytometry, CHO-LILRB1 cells; blocked ligand: APC HLA-G trimer tetramer.
Assay [12] shares this target. Nature of the assay: flow cytometry, CHO-LILRB1 cells. The source holds these as a separate data set.

As a reminder, the EC50 is the concentration that produces a half-maximal response. A lower EC50 goes with greater potency. One may read the EC50 (read off the curve) as the concentration giving half of the maximal effect. Low readings indicate greater potency, high ones weaker potency. Broadly, the Kd is the concentration at which binding is half-saturated. As a reminder, the IC50 is the concentration that gives 50% inhibition. A low value points to higher potency.

Changes are numbered by the printed parent chain.

T4 sequence (Q8NHL6 other isoform, or with tags, fused parts or gaps H02H H02H): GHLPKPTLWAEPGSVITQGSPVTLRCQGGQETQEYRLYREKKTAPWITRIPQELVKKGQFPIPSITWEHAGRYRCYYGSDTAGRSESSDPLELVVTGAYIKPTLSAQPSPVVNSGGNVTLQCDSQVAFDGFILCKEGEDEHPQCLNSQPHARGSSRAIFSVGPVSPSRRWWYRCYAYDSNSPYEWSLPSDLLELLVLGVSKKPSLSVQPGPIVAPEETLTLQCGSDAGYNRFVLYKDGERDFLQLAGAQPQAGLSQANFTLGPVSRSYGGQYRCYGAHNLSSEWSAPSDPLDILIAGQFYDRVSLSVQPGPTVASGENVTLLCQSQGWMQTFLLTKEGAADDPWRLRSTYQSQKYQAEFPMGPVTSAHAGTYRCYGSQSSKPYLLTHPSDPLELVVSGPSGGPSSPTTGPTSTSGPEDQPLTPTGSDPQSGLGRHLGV
T3 sequence (Q8NHL6 other isoform, or with tags, fused parts or gaps limits assumed): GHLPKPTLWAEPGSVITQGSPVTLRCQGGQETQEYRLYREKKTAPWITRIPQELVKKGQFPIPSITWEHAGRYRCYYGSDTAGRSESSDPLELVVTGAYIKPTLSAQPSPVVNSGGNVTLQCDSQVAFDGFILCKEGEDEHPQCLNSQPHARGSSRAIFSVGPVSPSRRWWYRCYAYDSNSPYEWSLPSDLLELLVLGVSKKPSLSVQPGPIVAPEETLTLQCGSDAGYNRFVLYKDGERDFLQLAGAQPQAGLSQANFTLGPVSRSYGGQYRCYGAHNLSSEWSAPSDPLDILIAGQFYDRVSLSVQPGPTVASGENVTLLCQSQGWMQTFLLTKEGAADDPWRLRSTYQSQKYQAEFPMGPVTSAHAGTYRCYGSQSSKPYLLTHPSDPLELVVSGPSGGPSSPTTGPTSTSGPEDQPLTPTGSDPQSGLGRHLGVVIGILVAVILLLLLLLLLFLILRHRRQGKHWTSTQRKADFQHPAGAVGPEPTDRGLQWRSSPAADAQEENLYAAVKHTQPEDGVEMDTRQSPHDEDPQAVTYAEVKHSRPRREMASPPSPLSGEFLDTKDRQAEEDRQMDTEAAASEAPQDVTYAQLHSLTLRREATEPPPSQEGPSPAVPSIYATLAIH
T1 sequence (Q8N423 other isoform, or with tags, fused parts or gaps H02H H02H): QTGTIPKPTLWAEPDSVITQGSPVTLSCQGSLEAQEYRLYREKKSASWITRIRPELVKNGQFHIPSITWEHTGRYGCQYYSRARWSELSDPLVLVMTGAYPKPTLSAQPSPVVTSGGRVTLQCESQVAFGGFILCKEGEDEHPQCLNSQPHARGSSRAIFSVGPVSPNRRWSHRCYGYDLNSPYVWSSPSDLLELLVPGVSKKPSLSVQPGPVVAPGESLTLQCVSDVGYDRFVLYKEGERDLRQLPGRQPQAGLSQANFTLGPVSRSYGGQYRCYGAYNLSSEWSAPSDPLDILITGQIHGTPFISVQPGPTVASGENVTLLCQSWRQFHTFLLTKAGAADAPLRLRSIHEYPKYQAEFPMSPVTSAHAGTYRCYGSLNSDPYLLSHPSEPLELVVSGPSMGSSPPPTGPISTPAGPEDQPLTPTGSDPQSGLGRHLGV
T2 sequence (Q8N423 other isoform, or with tags, fused parts or gaps limits assumed): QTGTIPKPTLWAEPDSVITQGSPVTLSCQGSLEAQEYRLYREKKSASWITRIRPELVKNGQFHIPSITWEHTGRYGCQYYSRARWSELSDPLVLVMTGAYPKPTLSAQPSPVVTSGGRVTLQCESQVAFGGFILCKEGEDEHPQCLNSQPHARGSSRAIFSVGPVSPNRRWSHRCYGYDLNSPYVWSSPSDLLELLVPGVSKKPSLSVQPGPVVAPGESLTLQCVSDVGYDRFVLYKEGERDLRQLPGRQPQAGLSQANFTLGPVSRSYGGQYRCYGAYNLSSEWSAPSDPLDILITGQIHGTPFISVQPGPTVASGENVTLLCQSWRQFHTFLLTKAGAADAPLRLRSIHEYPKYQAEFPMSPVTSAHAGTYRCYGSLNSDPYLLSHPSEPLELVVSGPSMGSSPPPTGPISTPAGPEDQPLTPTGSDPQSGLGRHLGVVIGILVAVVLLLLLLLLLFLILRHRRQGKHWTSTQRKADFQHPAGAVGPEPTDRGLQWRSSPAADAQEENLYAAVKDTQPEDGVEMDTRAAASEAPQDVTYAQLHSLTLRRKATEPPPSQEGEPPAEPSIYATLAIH

B1: Anti-LILRB2 antibody J-19.H1 (antibody, human IgG4 S228P, kappa, V domains shown)
VH: QVTLKESGPGILQPSHTLSLTCSFSGFSLNTYAMGVSWIRQPSGKGLEWLASIWWNGNKYNNPSLKSRLTVSKDTSNNQAFLKVTSVDTADTATYYCAHSRIIRFTDYVMDAWGQGASVTVSS
VL: DIQMTQSPASLSTFLGEPVTIECRASEDIYNDLAWYQQKPGKSPQLLIYNANSLHTGVPSRFSGSGSGTQYSLKINSLQSEDVASYFCQQYYDYPLTFGSGTKLEIKR
notes: also called JTX-8064
Take B1: the binding result in assay [1] is “binds”.

B2: #1 (antibody, human IgG1, V domains shown)
VH: EVQLQQSGPELVKPGASVKMSCKASGYTFTRYVMHWVKQKPGQGLEWIGYINPNNDGTKYNEKFKGKVTLTSDKSSSTAYMELSSLTSEDSAVYYCARGDLEILPYYDHARNAMDYWGQGTSVTVSS
VL: DIVMTQSPASQSASLGESVIITCRASGNIHNYLAWYQQKQGKSPQLLVYNAKTLADGVPSRFSGSGSGTQYSLKINSLQPEDFGTYYCQHFWSSPPTFGGGTKLELK
notes: also called D2M002-001
As to B2, the EC50 amounted to 0.033 µg/mL in [2] and 0.093 µg/mL in assay [4]. Also, the figures for the “gMFI (max)” value in assay [2] and in assay [4] were 16300 and 26800, respectively. In addition, in assay [3], the “EC50 (read off the curve)” value was around 0.09 µg/mL. The Kd in assay [5] is 2.08 nM; in assay [6] it was 14.7 nM.

B3: #3 (antibody, human IgG1, V domains shown)
VH: B2 VH with E1Q, V2I, Q5L, H35Y, N54D, V68A, I103L, H109Y, A110V
VL: B2 VL with V3Q, Q11L, L15V, S18T, I20T, T85S, S94T, L106I
notes: also called D2M002-003
Consider B3, for which the EC50 in assay [2] amounted to 0.058 µg/mL; in assay [4] it was 0.264 µg/mL. Also, the “gMFI (max)” value in assay [2] was found to be 18500; in [4], 29900. In addition, the Kd in [5] came to 0.542 nM; in [6], 57.1 nM.

B4: D2M002-101 (antibody, V domains shown)
VH: QVQLVQSGAEVKKPGASVKVSCKASGYTFTRYVMHWVRQAPGQRLEWMGWINPNNEETKYSQKFKGRVTLTRDTSASTAYMELSSLRSEDTAVYYCARADLEILPYYDHARNAMDYWGQGTLVTVSS
VL: DIQMTQSPSSVSASVGDRVTITCRASENIYSHLAWYQQKPGKAPKLLVYNAKSLQSGVPSRFSGSGSGTDFTLTISSLQPEDFATYYCQHFWSTPPTFGGGTKVEIK
notes: humanized and optimized variant tested beside D2M002-002; also called P211_A12
In the case of B4, the IC50 in assay [7] was 0.025 µg/mL; in assay [8], 0.138 µg/mL. Besides, the EC50 in assay [9] was 0.131 µg/mL; in assay [10] it was 0.201 µg/mL.

B5: #8 (antibody, human IgG1, V domains shown)
VH: EVQLQQPGAELMKPGASVKISCKATGYTFSSSWTEWVKQRPGHGLEWIGEILPGSGSTNYNEKFKGKATFTADTSSNTAYMQLSSLTSEDSAVYYCARSGAGGYDSGAFAYWGQGTLVTVSA
VL: DIVLTQSPASLAVSLGQRATISCRASESIDTYGNSFMHWYQQKPGQPPKLLIYRTSNLESGIPARFSGSGSRTDFTLTINPVEADDVATYYCQQSNEDPWTFGGGTKLEIK
notes: also called D2M002-008
On to B5, for which the EC50 in assay [2] is 0.565 µg/mL; in assay [4] it was 1.08 µg/mL; in assay [12] it was 0.768 µg/mL. Also, the figures for the “gMFI (max)” value in [2] and in assay [4] were 24800 and 46500, respectively. Moreover, the IC50 in [11] is 0.26 µg/mL. Besides, the Kd in assay [5] was determined as 0.191 nM; in [6], 0.64 nM.

B6: #11 (antibody, human IgG1, V domains shown)
VH: B5 VH with P7S, S31N, S32Y, T34I, N59D, K65E
VL: B5 VL with V3Q, L4M, I29V
notes: also called D2M002-011
Consider B6, for which the EC50 is 1.2 µg/mL in [2], 1.46 µg/mL in assay [4] and 1.13 µg/mL in [12]. Moreover, the “gMFI (max)” value in assay [2] was found to be 21600; in assay [4] it was 40000. For the same molecule, the IC50 in [11] turned out to be 0.367 µg/mL. For the same molecule, the Kd came to 0.0213 nM in assay [5] and 0.417 nM in assay [6].

B7: #16 (antibody, human IgG1, V domains shown)
VH: B5 VH with P7S, Y27N, S32Y, T34I, G44D, S84N
VL: B5 VL with V3E, L4M, T31S
notes: also called D2M002-016
For the molecule B7, in [11], the IC50 worked out at 1.18 µg/mL. This molecule also returned a half-maximal effective concentration (EC50) in assay [12] of 2.66 µg/mL. Further, the figures for the Kd in [5] and in [6] were 0.0385 nM and 0.714 nM, respectively.

B8: #22 (antibody, human IgG1, V domains shown)
VH: B5 VH with E1Q, P7S, F29L, S32Y, T34I
VL: B5 VL with I29V
notes: also called D2M002-022
For the molecule B8, the EC50 amounted to 0.911 µg/mL in [2], 1.99 µg/mL in assay [4] and 2.01 µg/mL in assay [12]. For the same molecule, the entries for the “gMFI (max)” value in assay [2] and in assay [4] were 26300 and 49300, respectively. This molecule also displayed an IC50 in [11] of 0.758 µg/mL. The dissociation constant Kd is 0.0323 nM in [5] and 0.588 nM in assay [6].

B9: #27 (antibody, human IgG1, V domains shown)
VH: B5 VH with P7S, A24I, S32Y, T34I, G44D, T69S, S84N
VL: B5 VL with I29V
notes: also called D2M002-027
For B9, the EC50 in assay [2] was 0.435 µg/mL; in assay [4] it was 1.02 µg/mL; in assay [12], 1.72 µg/mL. The results for the “gMFI (max)” value in assay [2] and in assay [4] were 23900 and 35700, respectively. This molecule returned an IC50 in [11] of 0.569 µg/mL. In addition, the values for the Kd in [5] and in assay [6] were 0.0481 nM and 0.556 nM, respectively.

B10: D2M002-122 (antibody, V domains shown)
VH: QVQLVQSGAEVKKPGASVKVSCKASGYTFTSYWIEWVRQAPGQGLEWIGEILPGEGSTNYNAKFKGRVTFTTDTSTSTAYMELRSLRSDDTAVYYCARSGAGGYDSGAFAYWGQGTLVTVSS
VL: AIQLTQSPSSLSASVGDRVTITCRASESVDTYGNSFMHWYQQKPGKAPKLLVYRTSNLESGVPSRFSGSGSGTDFTLTISSLQPEDFATYYCQQSNEDPWTFGGGTKVEIK
Regarding B10, the results for the IC50 in [7] and in assay [8] were 0.022 µg/mL and 0.501 µg/mL, respectively. In addition, the EC50 in assay [9] amounted to 0.111 µg/mL; in assay [10] it was 1.6 µg/mL.

B11: D2M002-124 (antibody, V domains shown)
VH: B10 VH with E55S
VL: B10 VL
With B11, the IC50 stood at 0.03 µg/mL in [7] and 0.427 µg/mL in assay [8]. Also, the results for the EC50 in assay [9] and in assay [10] were 0.145 µg/mL and 1.86 µg/mL, respectively.
